Measurements published in publication PMC4713135.

Target: EGFP-Rab5 (wild type) (UniProt P20339)
Assay: FRET or BRET

Chain of UniProt P20339 (P20339 whole entry): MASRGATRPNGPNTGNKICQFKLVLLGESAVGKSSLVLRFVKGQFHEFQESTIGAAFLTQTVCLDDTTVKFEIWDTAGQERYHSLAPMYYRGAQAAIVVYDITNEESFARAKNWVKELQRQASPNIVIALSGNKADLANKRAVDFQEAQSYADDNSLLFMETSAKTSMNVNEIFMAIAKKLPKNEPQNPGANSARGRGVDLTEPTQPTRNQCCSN

B1: mRFP-DRG2 (human DRG2) (natural protein)
chain: MGILEKISEIEKEIARTQKNKATEYHLGLLKAKLAKYRAQLLEPSKSASSKGEGFDVMKSGDARVALIGFPSVGKSTFLSLMTSTASEAASYEFTTLTCIPGVIEYKGANIQLLDLPGIIEGAAQGKGRGRQVIAVARTADVIIMMLDATKGEVQRSLLEKELESVGIRLNKHKPNIYFKPKKGGGISFNSTVTLTQCSEKLVQLILHEYKIFNAEVLFREDCSPDEFIDVIVGNRVYMPCLYVYNKIDQISMEEVDRLARKPNSVVISCGMKLNLDYLLEMLWEYLALTCIYTKKRGQRPDFTDAIILRKGASVEHVCHRIHRSLASQFKYALVWGTSTKYSPQRVGLTHTMEHEDVIQIVKK
FRET efficiency: 10%
